From publication PMC11009412, “Pathogenic mutations of human phosphorylation sites affect protein–protein interactions” (Nature Communications, 2024)

Tested on: BirA*-FLAG-GATAD1 variants in Flp-In-293 cells
Assay: BioID proximity labelling of full-length GATAD1 variants (SILAC)
Format: cell-based, human
Conditions: GATAD1 WT vs S102P, significant proteins only; for Log2_Ratio.H.L.normalized.WT_S102P_forward: forward experiment (label swap performed, sign inverted against the H/L ratio); for Log2_Ratio.H.L.normalized.WT_S102P_forward / Log2_Ratio.H.L.normalized.WT_S102P_reverse: log2 of normalized H/L ratio; for Ratio.H.L.normalized.WT_S102P_forward: forward experiment; for Log2_Ratio.H.L.normalized.WT_S102P_reverse / Ratio.H.L.normalized.WT_S102P_reverse: reverse experiment
Method in brief: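 Tetracycline-inducible Flp-In-293 T-REx lines expressing N-terminal BirA*-FLAG GATAD1 variants (WT, S102P, S102D, S102A) were SILAC-labelled, induced with 1 μg/mL tetracycline for 24 h and given 50 μM biotin overnight. Streptavidin-enriched proteins were trypsin-digested on-bead and analysed by LC-MS/MS. Label-swapped log2 SILAC ratios beyond ±1 defined differential proteins (n = 2).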

B1: WDR70 (protein, UniProt Q9NW82 1-654, looked up)
WD repeat-containing protein …: MERSGPSEVTGSDASGPDPQLAVTMGFTGFGKKARTFDLEAMFEQTRRTAVERSRKTLEAREKEEEMNREKELRRQNEDIEPTSSRSNVVRDCSKSSSRDTSSSESEQSSDSSDDELIGPPLPPKMVGKPVNFMEEDILGPLPPPLNEEEEEAEEEEEEEEEEENPVHKIPDSHEITLKHGTKTVSALGLDPSGARLVTGGYDYDVKFWDFAGMDASFKAFRSLQPCECHQIKSLQYSNTGDMILVVSGSSQAKVIDRDGFEVMECIKGDQYIVDMANTKGHTAMLHTGSWHPKIKGEFMTCSNDATVRTWEVENPKKQKSVFKPRTMQGKKVIPTTCTYSRDGNLIAAACQNGSIQIWDRNLTVHPKFHYKQAHDSGTDTSCVTFSYDGNVLASRGGDDSLKLWDIRQFNKPLFSASGLPTMFPMTDCCFSPDDKLIVTGTSIQRGCGSGKLVFFERRTFQRVYEIDITDASVVRCLWHPKLNQIMVGTGNGLAKVYYDPNKSQRGAKLCVVKTQRKAKQAETLTQDYIITPHALPMFREPRQRSTRKQLEKDRLDPLKSHKPEPPVAGPGRGGRVGTHGGTLSSYIVKNIALDKTDDSNPREAILRHAKAAEDSPYWVSPAYSKTQPKTMFAQVESDDEEAKNEPEWKKRKI
Question: For B1, which Log2_Ratio.H.L.normalized.WT_S102P_forward is on record?
Answer: 1.547

Question: And the Ratio.H.L.normalized.WT_S102P_forward?
Answer: 0.3422

Question: What about the Log2_Ratio.H.L.normalized.WT_S102P_reverse of the same molecule?
Answer: 1.108

Question: And the Ratio.H.L.normalized.WT_S102P_reverse?
Answer: 2.1553

B2: C11orf58;SMAP (protein, UniProt O00193 1-183, looked up)
Small acidic protein: MSAARESHPHGVKRSASPDDDLGSSNWEAADLGNEERKQKFLRLMGAGKKEHTGRLVIGDHKSTSHFRTGEEDKKINEELESQYQQSMDSKLSGRYRRHCGLGFSEVEDHDGEGDVAGDDDDDDDDSPDPESPDDSESDSESEKEESAEELQAAEHPDEVEDPKNKKDAKSNYKMMFVKSSGS
Question: With B2 as the molecule, how does the Log2_Ratio.H.L.normalized.WT_S102P_forward read?
Answer: 1.333

Question: What about the Ratio.H.L.normalized.WT_S102P_forward of the same molecule?
Answer: 0.3971

Question: What about the Log2_Ratio.H.L.normalized.WT_S102P_reverse of the same molecule?
Answer: 1.1961

Question: What about the Ratio.H.L.normalized.WT_S102P_reverse of the same molecule?
Answer: 2.2912

B3: RANBP3 (protein, UniProt Q9H6Z4 2-567, looked up)
Ran-binding protein 3: ADLANEEKPAIAPPVFVFQKDKGQKSPAEQKNLSDSGEEPRGEAEAPHHGTGHPESAGEHALEPPAPAGASASTPPPPAPEAQLPPFPRELAGRSAGGSSPEGGEDSDREDGNYCPPVKRERTSSLTQFPPSQSEERSSGFRLKPPTLIHGQAPSAGLPSQKPKEQQRSVLRPAVLQAPQPKALSQTVPSSGTNGVSLPADCTGAVPAASPDTAAWRSPSEAADEVCALEEKEPQKNESSNASEEEACEKKDPATQQAFVFGQNLRDRVKLINESVDEADMENAGHPSADTPTATNYFLQYISSSLENSTNSADASSNKFVFGQNMSERVLSPPKLNEVSSDANRENAAAESGSESSSQEATPEKESLAESAAAYTKATARKCLLEKVEVITGEEAESNVLQMQCKLFVFDKTSQSWVERGRGLLRLNDMASTDDGTLQSRLVMRTQGSLRLILNTKLWAQMQIDKASEKSIRITAMDTEDQGVKVFLISASSKDTGQLYAALHHRILALRSRVEQEQEAKMPAPEPGAAPSNEEDDSDDDDVLAPSGATAAGAGDEGDGQTTGST
Question: For B3, which Log2_Ratio.H.L.normalized.WT_S102P_forward is on record?
Answer: 1.029

Question: And the Ratio.H.L.normalized.WT_S102P_forward?
Answer: 0.49

Question: What about the Log2_Ratio.H.L.normalized.WT_S102P_reverse of the same molecule?
Answer: 1.139

Question: What about the Ratio.H.L.normalized.WT_S102P_reverse of the same molecule?
Answer: 2.2024

B4: THRAP3 (protein, UniProt Q9Y2W1 2-955, looked up)
Thyroid hormone …: SKTNKSKSGSRSSRSRSASRSRSRSFSKSRSRSRSLSRSRKRRLSSRSRSRSYSPAHNRERNHPRVYQNRDFRGHNRGYRRPYYFRGRNRGFYPWGQYNRGGYGNYRSNWQNYRQAYSPRRGRSRSRSPKRRSPSPRSRSHSRNSDKSSSDRSRRSSSSRSSSNHSRVESSKRKSAKEKKSSSKDSRPSQAAGDNQGDEAKEQTFSGGTSQDTKASESSKPWPDATYGTGSASRASAVSELSPRERSPALKSPLQSVVVRRRSPRPSPVPKPSPPLSSTSQMGSTLPSGAGYQSGTHQGQFDHGSGSLSPSKKSPVGKSPPSTGSTYGSSQKEESAASGGAAYTKRYLEEQKTENGKDKEQKQTNTDKEKIKEKGSFSDTGLGDGKMKSDSFAPKTDSEKPFRGSQSPKRYKLRDDFEKKMADFHKEEMDDQDKDKAKGRKESEFDDEPKFMSKVIGANKNQEEEKSGKWEGLVYAPPGKEKQRKTEELEEESFPERSKKEDRGKRSEGGHRGFVPEKNFRVTAYKAVQEKSSSPPPRKTSESRDKLGAKGDFPTGKSSFSITREAQVNVRMDSFDEDLARPSGLLAQERKLCRDLVHSNKKEQEFRSIFQHIQSAQSQRSPSELFAQHIVTIVHHVKEHHFGSSGMTLHERFTKYLKRGTEQEAAKNKKSPEIHRRIDISPSTFRKHGLAHDEMKSPREPGYKAEGKYKDDPVDLRLDIERRKKHKERDLKRGKSRESVDSRDSSHSRERSAEKTEKTHKGSKKQKKHRRARDRSRSSSSSSQSSHSYKAEEYTEETEEREESTTGFDKSRLGTKDFVGPSERGGGRARGTFQFRARGRGWGRGNYSGNNNNNSNNDFQKRNREEEWDPEYTPKSKKYYLHDDREGEGSDKWVSRGRGRGAFPRGRGRFMFRKSSTSPKWAHDKFSGEEGEIEDDESGTENREEKDNIQPTTE
Question: B4 was tested. Which Log2_Ratio.H.L.normalized.WT_S102P_forward did it give?
Answer: 1.318

Question: And the Ratio.H.L.normalized.WT_S102P_forward?
Answer: 0.4011

Question: What about the Log2_Ratio.H.L.normalized.WT_S102P_reverse of the same molecule?
Answer: 1.052

Question: What about the Ratio.H.L.normalized.WT_S102P_reverse of the same molecule?
Answer: 2.0733

B5: ACIN1 (protein, UniProt Q9UKV3 1-1341, looked up)
Apoptotic chromatin …: MWRRKHPRTSGGTRGVLSGNRGVEYGSGRGHLGTFEGRWRKLPKMPEAVGTDPSTSRKMAELEEVTLDGKPLQALRVTDLKAALEQRGLAKSGQKSALVKRLKGALMLENLQKHSTPHAAFQPNSQIGEEMSQNSFIKQYLEKQQELLRQRLEREAREAAELEEASAESEDEMIHPEGVASLLPPDFQSSLERPELELSRHSPRKSSSISEEKGDSDDEKPRKGERRSSRVRQARAAKLSEGSQPAEEEEDQETPSRNLRVRADRNLKTEEEEEEEEEEEEDDEEEEGDDEGQKSREAPILKEFKEEGEEIPRVKPEEMMDERPKTRSQEQEVLERGGRFTRSQEEARKSHLARQQQEKEMKTTSPLEEEEREIKSSQGLKEKSKSPSPPRLTEDRKKASLVALPEQTASEEETPPPLLTKEASSPPPHPQLHSEEEIEPMEGPAPAVLIQLSPPNTDADTRELLVSQHTVQLVGGLSPLSSPSDTKAESPAEKVPEESVLPLVQKSTLADYSAQKDLEPESDRSAQPLPLKIEELALAKGITEECLKQPSLEQKEGRRASHTLLPSHRLKQSADSSSSRSSSSSSSSSRSRSRSPDSSGSRSHSPLRSKQRDVAQARTHANPRGRPKMGSRSTSESRSRSRSRSRSASSNSRKSLSPGVSRDSSTSYTETKDPSSGQEVATPPVPQLQVCEPKERTSTSSSSVQARRLSQPESAEKHVTQRLQPERGSPKKCEAEEAEPPAATQPQTSETQTSHLPESERIHHTVEEKEEVTMDTSENRPENDVPEPPMPIADQVSNDDRPEGSVEDEEKKESSLPKSFKRKISVVSATKGVPAGNSDTEGGQPGRKRRWGASTATTQKKPSISITTESLKSLIPDIKPLAGQEAVVDLHADDSRISEDETERNGDDGTHDKGLKICRTVTQVVPAEGQENGQREEEEEEKEPEAEPPVPPQVSVEVALPPPAEHEVKKVTLGDTLTRRSISQQKSGVSITIDDPVRTAQVPSPPRGKISNIVHISNLVRPFTLGQLKELLGRTGTLVEEAFWIDKIKSHCFVTYSTVEEAVATRTALHGVKWPQSNPKFLCADYAEQDELDYHRGLLVDRPSETKTEEQGIPRPLHPPPPPPVQPPQHPRAEQREQERAVREQWAEREREMERRERTRSEREWDRDKVREGPRSRSRSRDRRRKERAKSKEKKSEKKEKAQEEPPAKLLDDLFRKTKAAPCIYWLPLTDSQIVQKEAERAERAKEREKRRKEQEEEEQKEREKEAERERNRQLEREKRREHSRERDRERERERERDRGDRDRDRERDRERGRERDRRDTKRHSRSRSRSTPVRDRGGRR
Question: How did the Log2_Ratio.H.L.normalized.WT_S102P_forward turn out when B5 was run?
Answer: 1.249

Question: What about the Ratio.H.L.normalized.WT_S102P_forward of the same molecule?
Answer: 0.4208

Question: And the Log2_Ratio.H.L.normalized.WT_S102P_reverse?
Answer: 1.096

Question: What about the Ratio.H.L.normalized.WT_S102P_reverse of the same molecule?
Answer: 2.1371

B6: ESF1 (protein, UniProt Q9H501 2-851, looked up)
ESF1 homolog: SSKQEIMSDQRFRRVAKDPRFWEMPEKDRKVKIDKRFRAMFHDKKFKLNYAVDKRGRPISHSTTEDLKRFYDLSDSDSNLSGEDSKALSQKKIKKKKTQTKKEIDSKNLVEKKKETKKANHKGSENKTDLDNSIGIKKMKTSCKFKIDSNISPKKDSKEFTQKNKKEKKNIVQHTTDSSLEEKQRTLDSGTSEIVKSPRIECSKTRREMQSVVQLIMTRDSDGYENSTDGEMCDKDALEEDSESVSEIGSDEESENEITSVGRASGDDDGSEDDEEEDEDEEEDEDEDSEDDDKSDSGPDLARGKGNIETSSEDEDDTADLFPEESGFEHAWRELDKDAPRADEITRRLAVCNMDWDRLKAKDLLALFNSFKPKGGVIFSVKIYPSEFGKERMKEEQVQGPVELLSIPEDAPEKDWTSREKLRDYQFKRLKYYYAVVDCDSPETASKIYEDCDGLEFESSCSFIDLRFIPDDITFDDEPKDVASEVNLTAYKPKYFTSAAMGTSTVEITWDETDHERITMLNRKFKKEELLDMDFQAYLASSSEDEEEIEEELQGDDGVNVEEDGKTKKSQKDDEEQIAKYRQLLQVIQEKEKKGKENDMEMEIKWVPGLKESAEEMVKNKLEGKDKLTPWEQFLEKKKEKKRLKRKQKALAEEASEEELPSDVDLNDPYFAEEVKQIGINKKSVKSAKDGTSPEEEIEIERQKAEMALLMMDEDEDSKKHFNYNKIVEHQNLSKKKKKQLMKKKELIEDDFEVNVNDARFQAMYTSHLFNLDPSDPNFKKTKAMEKILEEKARQRERKEQELTQAIKKKESEIEKESQRKSIDPALSMLIKSIKTKTEQFQARKKQKVK
Question: For B6, which Log2_Ratio.H.L.normalized.WT_S102P_forward is on record?
Answer: 1.318

Question: What about the Ratio.H.L.normalized.WT_S102P_forward of the same molecule?
Answer: 0.401

Question: What about the Log2_Ratio.H.L.normalized.WT_S102P_reverse of the same molecule?
Answer: 1.077

Question: And the Ratio.H.L.normalized.WT_S102P_reverse?
Answer: 2.1103

B7: WDR83 (protein, UniProt Q9BRX9 1-315, looked up)
WD repeat domain-containing …: MAFPEPKPRPPELPQKRLKTLDCGQGAVRAVRFNVDGNYCLTCGSDKTLKLWNPLRGTLLRTYSGHGYEVLDAAGSFDNSSLCSGGGDKAVVLWDVASGQVVRKFRGHAGKVNTVQFNEEATVILSGSIDSSIRCWDCRSRRPEPVQTLDEARDGVSSVKVSDHEILAGSVDGRVRRYDLRMGQLFSDYVGSPITCTCFSRDGQCTLVSSLDSTLRLLDKDTGELLGEYKGHKNQEYKLDCCLSERDTHVVSCSEDGKVFFWDLVEGALALALPVGSGVVQSLAYHPTEPCLLTAMGGSVQCWREEAYEAEDGAG
Question: With B7 as the molecule, how does the Log2_Ratio.H.L.normalized.WT_S102P_forward read?
Answer: 1.042

Question: And the Ratio.H.L.normalized.WT_S102P_forward?
Answer: 0.4856

Question: What about the Log2_Ratio.H.L.normalized.WT_S102P_reverse of the same molecule?
Answer: 1.085

Question: What about the Ratio.H.L.normalized.WT_S102P_reverse of the same molecule?
Answer: 2.1217
